The subject of one series is O=C(O)c1ccccc1. The experiment in a line: purified protein. To be noted: ATP, NADPH, Mg2+, 30 °C.
The next series relates to CCCC(=O)O. The experiment in a line: purified protein, by the assay type. To be noted: pH 7.5; 30.0 °C.
Another series concerns COc1ccc(C(=O)O)cc1. The experiment in a line: purified protein, by the assay type. The note with it: pH 7.5; 30.0 °C.
The subject of another series is Cc1ccc(C(=O)O)cc1. The experiment in a line: purified protein, by the assay type. The note with it: pH 7.5; 30.0 °C.
Another series has as its system O=C(O)CCc1ccccc1. The series is described as follows: purified protein, by the assay type. To be noted: pH 7.5; 30.0 °C.
For the next series, the system named is O=C(O)c1ccc2c(c1)OCO2. The series is described as follows: purified protein, by the assay type. The note with it: pH 7.5; 30.0 °C.
Another series concerns the target T1, AspRedAm (Aspergillus oryzae, UniProt Q2TW47).
T1 sequence (Q2TW47 1-295): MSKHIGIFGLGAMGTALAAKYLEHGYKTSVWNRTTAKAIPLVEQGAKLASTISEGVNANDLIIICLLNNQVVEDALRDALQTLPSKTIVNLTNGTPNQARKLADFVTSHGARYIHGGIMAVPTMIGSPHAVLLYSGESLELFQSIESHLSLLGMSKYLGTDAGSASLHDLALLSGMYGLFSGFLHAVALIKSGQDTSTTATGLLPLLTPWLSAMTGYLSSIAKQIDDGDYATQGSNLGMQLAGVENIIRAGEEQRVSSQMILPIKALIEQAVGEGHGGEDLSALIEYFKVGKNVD
The series is described as follows: NADPH absorbance at […] nm, specific activity. It is filed as biochemical. The note with it: 10 mM aldehyde, 20 mM amine, 0.2 mM NADPH, MOPS pH 7.5, 30 °C.

The text below walks through data of article PMC12111831, “Phase-Separated Multienzyme Condensates for Efficient Synthesis of Imines from Carboxylic Acids with Enhanced Dual-Cofactor Recycling” (International Journal of Molecular Sciences, 2025).

Experimental for CCCC(=O)O: (§1) Varying substrate concentrations were dissolved in 250 mM NaOH. Substrate-free controls were included for baseline correction. Kinetic parameters were derived via the nonlinear regression of Michaelis–Menten plots using OriginPro 2021 SR2 (64-bit) Build 9.8.0.240.
Experimental for COc1ccc(C(=O)O)cc1: as §1
Experimental for Cc1ccc(C(=O)O)cc1: as §1
Experimental for O=C(O)CCc1ccccc1: as §1
Experimental for O=C(O)c1ccc2c(c1)OCO2: as §1

As a reminder, the Km is the concentration of substrate that gives half-maximal velocity. Usually kcat stands for the number of substrate molecules converted per active site and unit of time at saturation. Turning to NiCAR (Nocardia iowensis), the Km in the series on O=C(O)c1ccccc1 is 450 ± 30 µM; in the series with CCCC(=O)O, 101930 ± 21090 µM; in the series on COc1ccc(C(=O)O)cc1, 1580 ± 140 µM; with Cc1ccc(C(=O)O)cc1, 1850 ± 160 µM; with O=C(O)CCc1ccccc1, 1040 ± 90 µM; in the series with O=C(O)c1ccc2c(c1)OCO2, 4490 ± 620 µM. Moreover, the kcat with O=C(O)c1ccccc1 stood at 3.9227 ± 0.0378 s⁻¹; in the series on CCCC(=O)O, 5.56 ± 1.05 s⁻¹; in the series on COc1ccc(C(=O)O)cc1 it was 1.89 ± 0.0387 s⁻¹; in the series on Cc1ccc(C(=O)O)cc1 it was 3.17 ± 0.0792 s⁻¹; in the series on O=C(O)CCc1ccccc1, 3.15 ± 0.0588 s⁻¹; with O=C(O)c1ccc2c(c1)OCO2, 1.58 ± 0.0875 s⁻¹.
Consider `C#CCN` [propargylamine], for which the “NADPH absorbance at 340 nm, specific activity” value on AspRedAm is listed as “both enzymes exhibited catalytic activity toward all tested substrates, except for substrate 2h with cyclopropylamine”.
As for `NC1CC1` [cyclopropylamine], the “NADPH absorbance at 340 nm, specific activity” value on AspRedAm (not with aldehyde 2h) was “both enzymes exhibited catalytic activity toward all tested substrates, except for substrate 2h with cyclopropylamine”.
